What was measured:
Assay in all cases: cell_activity
[1] = system: ZFN 59581 (synthetic construct); settings: indels with partner 59580, 6 ug mRNA, activated T cells; 83 at 2 ug, 72 at 0.5 ug
[2] = system: ZFN 59440 (synthetic construct); settings: indels with partner 59441, 6 ug mRNA, activated T cells; 82 at 2 ug, 59 at 0.5 ug; F6 printed ATCCLAH in Table 1, ATCGLAH in claim
[3] = system: ZFN 59580 (synthetic construct); settings: indels with partner 59581, 6 ug mRNA, activated T cells; 83 at 2 ug, 72 at 0.5 ug
[4] = system: ZFN 59489 (synthetic construct); settings: indels with partner 59488, 6 ug mRNA, activated T cells; 84 at 2 ug, 60 at 0.5 ug
[5] = system: ZFN 59557 (synthetic construct); settings: indels with partner 59558, 6 ug mRNA, activated T cells; 80 at 2 ug, 55 at 0.5 ug
[6] = system: ZFN 59558 (synthetic construct); settings: indels with partner 59557, 6 ug mRNA, activated T cells; 80 at 2 ug, 55 at 0.5 ug
[7] = system: ZFN 59488 (synthetic construct); settings: indels with partner 59489, 6 ug mRNA, activated T cells; 84 at 2 ug, 60 at 0.5 ug
[8] = system: ZFN 59441 (synthetic construct); settings: indels with partner 59440, 6 ug mRNA, activated T cells; 82 at 2 ug, 59 at 0.5 ug

Sequence: ATAGTGCTGCACAAGGCTGACCACATCC (double strand) [CISH exon 3 site 59581]
- activity [1]: 82%

Sequence: CCAGCAAAGGACGAGGTCTAGAAGGCAG (double strand) [CISH exon 2 site 59440]
- activity [2]: 84%

Sequence: CCGGAAAGGCCAGGATGCGTGGCCTGGA (double strand) [CISH exon 3 site 59580]
- activity [3]: 82%

Sequence: GAGGAGGTGGCAGAGGGTACCCCAGCCC (double strand) [CISH exon 2 site 59489]
- activity [4]: 89%

Sequence: GAGTCCAGACGGAAGCTGGAGTCGGCAT (double strand) [CISH exon 3 site 59557]
- activity [5]: 84%

Sequence: GATGCGTGGCCTGGACAAGCAGTTGGAG (double strand) [CISH exon 3 site 59558]
- activity [6]: 84%

Sequence: GGAAGGCCCCAGCAGGCAAGGGCTGCAT (double strand) [CISH exon 2 site 59488]
- activity [7]: 89%

Sequence: GTGGAGCGGACTGGGCAGCGGCCCCTGT (double strand) [CISH exon 2 site 59441]
- activity [8]: 84%

From patent US11661611
